Tests used:
[1] = Enzyme kinetics of GTP hydrolysis (PNP coupled assay, Michaelis–Menten); format: biochemical, Saccharomyces cerevisiae; conditions: isolated enzyme
Method: (§1) Finally, we measured the enzyme kinetics of mutant Efl1 R1086Q as an isolated enzyme and bound to Sdo1 using an enzymatic coupled assay with a purine nucleoside phosphorylase (PNP) enzyme. This analysis was extended to another disease mutation (EFL1 M882K) also located in domain IV of the GTPase using the equivalent yeast variant, Efl1 L910K [17]. The Km and kcat kinetic parameters were calculated using non-linear regression assuming a Michaelis–Menten model (Supplementary Table S1). […] The catalytic constant for mutant R1086Q and the wild-type enzyme consisted of 0.67 min^−1, and it was 0.58 min^−1 for mutant Efl1 L910K. […] In line with the proposed role of Sdo1 as a guanine exchange factor of Efl1, previous results have shown that the interaction of wild-type Efl1 with Sdo1 impacted its Km for GTP, decreasing its value 2–3-fold. The Km values for the complexes formed between Sdo1 and Efl1 mutants decreased by half with respect to their cognate-free counterpart and differed from each other. […] The measured Km value comprises all the microscopic rate constants of the individual reactions occurring in the enzyme, which include the binding to the substrate and product and the corresponding conformational changes.
Hydrolysis of GTP was measured using the Enzchek Phosphate Assay kit (Molecular Probes) as described by Webb. Standard reactions consisted of 100 µL containing 6 µM of Efl1 R1086Q and Efl1 L910K, 0.3 mM MESG, 1.0 U purine nucleoside phosphorylase (PNP) and the indicated amounts of GTP. Measurements done in the presence of effector protein contained 25 µM of Sdo1.
The reaction buffer consisted of 50 mM HEPES -KOH pH 7.5, 150 mM NaCl, 5 mM MgCl2.
(§2) Reactions were initiated and the GTPase was added after 3 min. Time courses were followed by recording the change in absorbance at 360 nm in a Cary 60 UV -Vis spectrophotometer (Agilent Technologies). Background absorbance was recorded prior to the addition of the GTPase and subtracted from the sample signals. The slope of the measured time courses corresponded to the GTP hydrolysis rate. The concentration of releas ed phosphate was estimated using a molar absorption coefficient at 360 nm of 14,386 M -1 cm-1 previously described in [2]. Data were analysed by nonlinear regression to the M ichaelis-Menten equation with the program Origin Version 5.0 (OriginLab, Co., Northampton, MA). […]
M HEPES-KOH pH 7.4, 2.5 mM magnesium acetate, 50 mM sucrose, 2 mM DTT, 0.1 mM PMSF, 0.1 mM benzamidine, 8 mM putrescine, 1 mM spermidine. […]
Dilution at the end of each titration was no longer than 2.5% of the initial volume. Data were corrected for the background signal by subtracting the fluorescence of the same ligand concentration without the GTPase in the reaction mixture.
(§3) Maximum emission at 440 nm was replotted as a function of nucleotide concentration and analysed

[2] = test system: Tif6 bound to 60S subunits; assay: Tif6 release assay with purified yeast components; format: biochemical, Saccharomyces cerevisiae; conditions: 50 nM Efl1 variant, 50 nM Sdo1, 100 µM GTP, 30 °C, 10 min
Method: The release of Tif6 (yeast orthologue of eIF6) was performed as previously described in [3, 15]. Reaction mixtures contained 10 nM 60S subunits, 40 nM Tif6, 50 nM Efl1 variant, 50 nM Sdo1, and 100 µM GTP in buffer of 10 mM Tris-HCl at pH 7.4, 75 mM KCl, and 1.5 mM MgCl2 supplemented with RNAse inhibitors (Promega, Madison, WI, USA) and protease inhibitors free of EDTA (GoldBio, St. Louis, MO, USA). GTP was omitted in the negative control, and 50 mM EDTA was added as the positive control to disassemble the 60S ribosomal subunits. Reaction mixtures of 100 µL were incubated at 30 °C for 10 min and added on top of 150 µL of a 30% sucrose cushion prepared in the same buffer. Samples were centrifuged at 476,000× g for 30 min in an Optima tabletop MX ultracentrifuge with a TLA-100 rotor. The top 200 µL (free fraction) was recovered, and the remaining 50 µL was resuspended in 150 µL of the same buffer. Samples were precipitated with 30% trichloroacetic acid, electrophoresed in 10% Tris-glycine SDS-PAGE, transferred to a PVDF membrane, and immunoblotted with antibodies anti-eIF6 (PA531066; Thermo Scientific; dilution 1:3000) and anti-uL3 (OAAB09713; Aviva Systems Biology, San Diego, CA, USA; dilution 1:500) overnight at 4 °C. […] Signals were quantified using programme Image J version 1.8.0. […]

[3] = set-up: method as in PMID 25991726, PMID 30780079, PMID 23831625; conditions: wild-type Efl1; cited from earlier work
[4] = substrate: Nc1nc2c(ncn2[C@@H]2O[C@H](COP(=O)(O)OP(=O)(O)OP(=O)(O)O)[C@@H](O)[C@H]2O)c(=O)[nH]1; assay: GTP hydrolysis by PNP-coupled Enzchek phosphate assay (MESG, 360 nm), pH 7.5, 5 mM MgCl2, 6 µM Efl1 alone, Michaelis-Menten fit.; format: biochemical; conditions: 25.0 °C
Method: as §1
Hydrolysis of GTP was measured using the Enzchek Phosphate Assay kit (Molecular Probes) as described by Webb. […]
as §2, with “The concentration of releas ed phosphate was estimated using a molar absorption coefficient at 360 nm of 14,386 M -1 cm-1 previously described in [2].” left out
as §3

B1: Efl1 wild type (Saccharomyces cerevisiae S288C) (protein)
chain: MPRVESETYKRLQNDPSCIRNICIVAHVDHGKTSLSDSLLASNGIISQRLAGKIRFLDARPDEQLRGITMESSAISLYFRVLRKQEGSDEPLVSEHLVNLIDSPGHIDFSSEVSAASRLCDGAVVLVDVVEGVCSQTVTVLRQCWTEKLKPILVLNKIDRLITELQLTPQEAYIHLSKVIEQVNSVIGSFFANERQLDDLFWREQLEKNENAEYIEKDDSGIYFNPTDNNVIFASAIDGWGFNIGQLAKFYEQKLGAKRENLQKVLWGDFYMDPKTKKIINNKGLKGRSLKPLFTSLILENIWKIYQNIITSRDSEMVEKIAKTLNIKLLARDLRSKDDKQLLRTIMGQWLPVSTAVLLTVIEKLPSPLESQTDRLNTILVSESDTAAMDPRLLKAMKTCDKEGPVSAYVSKMLSIPREELPVESKRIASSDELMERSRKAREEALNAAKHAGMVENMAMMDLNDNSKNTSDLYKRAKDTVMTPEVGEQTKPKPSRNNDVFCVVSEPSSALDLEFEYEGEDDSDSQDNFGLDFVPTDIDPNDPLSSMFEYEEEDPLLESIKQISEDVNDEVDDIFDEKEECLVAFARIYSGTLRVGQEISVLGPKYDPKCPEEHIETAIITHLYLFMGKELVPLDVCPSGNIVGIRGLAGKVLKSGTLIEKGVQGVNLAGVNFHFTPIVRVAVEPANPVEMSKLVRGLKLLDQADPCVHTYVENTGEHILCTAGELHLERCLKDLTERFAGIEITHSEPAIPYRETFLSASDMNPPQNSQLGRGVHELLLSQYKITFRTFPLSGKVTDFLSQHQNSIKNILKTSTSSMDPVIESTGSSFLDKKSLLVAFEEVINQEEKSRELLSGFKVKLAGFGPSRVGCNILLSQDNLLGSLFEGTPAAFEYSDSIKNGFQLAVSEGPLANEPVQGMCVLVESVHKMSQDEIESIEDPRYQQHIVDLSGRLITSTRDAIHEAFLDWSPRIMWAIYSCDIQTSVDVLGKVYAVILQRHGKIISEEMKEGTPFFQIEAHVPVVEAFGLSEDIRKRTSGAAQPQLVFSGFECIDLDPFWVPTTEEELEELGDTADRENIARKHMNAIRRRKGLFIEEKVVENAEKQRTLKKN
notes: recombinantly expressed in S. cerevisiae; isolated GTPase
- kcat [1]: 0.0112 s⁻¹
- release of Tif6 from the 60S subunit (distribution of Tif6 in free and bound fraction, immunoblot) [2]: Tif6 was enriched in the free fraction
- fold decrease of Km for GTP upon interaction with Sdo1 [3]: 2–3 fold
- Km [4]: 155 µM

Source: paper PMC9405973, “Altered Conformational Landscape upon Sensing Guanine Nucleotides in a Disease Mutant of Elongation Factor-like 1 (EFL1) GTPase” (Biomolecules, 2022)
